*1 amine or outer side, *2 acyl side, *3 side chain or, on linkers, in order; H or OH if unused. Bridges are numbered along the chain shown (N, C = ends). Where no end group is shown, it is not given here. [ ]: non-standard residue; d: D form. 124TriAz = 3-(1,2,4-triazol-1-yl)-alanine, O=C([C@H](Cn1cncn1)N[*:1])[*:2]; TATA = O=C(CC[*:1])N1CN(C(=O)CC[*:2])CN(C(=O)CC[*:3])C1; Phe(4-COOH) = N[C@@H](Cc1ccc(C(=O)O)cc1)C(=O)O; Ala(4-thiazolyl) = N[C@@H](Cc1cscn1)C(=O)O; 1Nal = N[C@@H](Cc1cccc2ccccc12)C(=O)O; 2Nal = N[C@@H](Cc1ccc2ccccc2c1)C(=O)O; Dopa = N[C@@H](Cc1ccc(O)c(O)c1)C(=O)O; Ser(ΨH,HPro) = O=C(O)[C@@H]1COCN1; hArg = N=C(N)NCCCC[C@H](N)C(=O)O; 2Pal = N[C@@H](Cc1ccccn1)C(=O)O; 2Thi = N[C@@H](Cc1cccs1)C(=O)O; Aze = O=C(O)[C@@H]1CCN1; βAla = NCCC(=O)O; Sar = CNCC(=O)O

The chains are these.
T1: human Nectin-4 (human, UniProt Q96NY8 32-349)
T1 construct: a Gly32-Ser349 FLAG construct is described only under the SPR assay; also called PVRL4
T1 sequence (looked up): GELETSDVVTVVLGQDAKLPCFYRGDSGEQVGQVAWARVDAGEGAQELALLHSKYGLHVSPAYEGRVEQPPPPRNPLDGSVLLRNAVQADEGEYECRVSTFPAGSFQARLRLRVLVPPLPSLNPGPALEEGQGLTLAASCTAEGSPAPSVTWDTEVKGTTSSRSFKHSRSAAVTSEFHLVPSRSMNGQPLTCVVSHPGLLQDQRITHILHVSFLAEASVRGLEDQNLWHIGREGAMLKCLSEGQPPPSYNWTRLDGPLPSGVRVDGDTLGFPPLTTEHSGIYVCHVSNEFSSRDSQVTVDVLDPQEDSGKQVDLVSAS

The target of the test is T1, human Nectin-4. In words: FP competition, tracer SEQ ID NO 217. How it is done: Peptides were diluted to an appropriate concentration in assay buffer as described in the direct binding assay with a maximum of 5% DMSO, then serially diluted 1 in 2. […] Measurements were conducted as for the direct binding assay, however the gain was determined prior to the first measurement. Data analysis was in Systat Sigmaplot version 12.0 where the mP values were fit to a user defined cubic equation to generate a Ki value: […]
As a reminder, the Ki is the equilibrium dissociation constant of an inhibitor or competing ligand from its target. High values mean a looser hold on the target, low ones a stronger hold on the target. In the case of Ac-QKWCAPLSDYWCNRIC (linker 4-12-16 via TATA) [BCY7392], the Ki came to 27.2 nM.

Ac-QKWCAPLADYWCNRIC (linker 4-12-16 via TATA) [BCY7627] registered a Ki of 101 nM.

The molecule Ac-QKWCAPLSDYWCNAIC (linker 4-12-16 via TATA) [BCY7632] registered a Ki of 123 nM.

Take Ac-QKACAPLSDYWCNRIC (linker 4-12-16 via TATA) [BCY7624]: the affinity, expressed as Ki, was 571 nM. This Ki lies about 4.6-fold higher than the previous one.

For Ac-AKWCAPLSDYWCNRIC (linker 4-12-16 via TATA) [BCY7622], the Ki came out at 31 nM.

Ac-Q[dD]WCAPLSDYWCNRIC (linker 4-12-16 via TATA) [BCY7993] gave a Ki of 38 nM.

Ac-QK[dA]CAPLSDYWCNRIC (linker 4-12-16 via TATA) [BCY7636] returned a Ki of 522 nM.

Molecule Ac-QKWCAPLSDYWCARIC (linker 4-12-16 via TATA) [BCY7631] showed an inhibition constant (Ki) of 19 nM.

In turn, Ac-Q[dA]WCAPLSDYWCNRIC (linker 4-12-16 via TATA) [BCY7635] had a Ki of 15.2 nM.

Regarding Ac-QAWCAPLSDYWCNRIC (linker 4-12-16 via TATA) [BCY7623], affinity was put at a Ki of 21 nM.

Ac-QKWCAALSDYWCNRIC (linker 4-12-16 via TATA) [BCY7625] showed a Ki of 141 nM. Against the preceding molecule, the Ki is about 6.7-fold higher.

As for Ac-[dA]KWCAPLSDYWCNRIC (linker 4-12-16 via TATA) [BCY7634], the affinity corresponds to a Ki of 24 nM.

The molecule ACAPLDDYWCGRICA (linker 2-10-14 via TATA) [BCY432] had a Ki of 1100 nM.

Ac-CPFGCMKN[1Nal]SWPIWC (linker 1-5-15 via TATA) [BCY7663] had a Ki of 25.5 nM. This Ki is about 43-fold lower than that of the molecule before.

Regarding Ac-CPF[dA]CMKNWSWPIWC (linker 1-5-15 via TATA) [BCY7538], the Ki is 8.5 nM.

The molecule Ac-CPF[dD]CMKNWSTPIWC (linker 1-5-15 via TATA) [BCY7819] had a Ki of 12 nM.

Ac-CPF[dD]CM[hArg][Ala(4-thiazolyl)]WSTPIWC (linker 1-5-15 via TATA) [BCY7879] showed a Ki of 12.5 nM. The Ki values of the last two molecules are within 1.5-fold of each other.

ACPFGCMRNWSWPIWCA (linker 2-6-16 via TATA, also called 80-09-02-N003) [BCY429] displayed a Ki of 42.6 nM.

With QKWCAPLSXYWCNRIC (N-terminal Ac; TATA on 3 Cys) [BCY7640], the Ki stood at 86 nM.

Turning to Ac-CPFGCM[hArg]NWSWPIWC (linker 1-5-15 via TATA) [BCY7660], the Ki is 26.2 nM.

The molecule Ac-CPFGCMSNWSWPIWC (linker 1-5-15 via TATA, also called 80-09-02-N047) [BCY7658] gave a Ki of 33.6 nM. This Ki and that of the molecule before are within 1.5-fold of each other.

Turning to Ac-CPFGCMKDWSWPIWC (linker 1-5-15 via TATA, also called 80-09-02-N050) [BCY7661], affinity was put at a Ki of 29.4 nM.

Turning to Ac-CPFGCMKNWSTPIWC (linker 1-5-15 via TATA, also called 80-09-02-N054) [BCY7665], the Ki is 24.1 nM.

In turn, Ac-CPFGCMKHWSWPIWC (linker 1-5-15 via TATA, also called 80-09-02-N051) [BCY7662] gave a Ki of 14.8 nM.

The molecule Ac-CPFGCMDNWSWPIWC (linker 1-5-15 via TATA, also called 80-09-02-N048) [BCY7659] displayed a Ki of 77.9 nM. Against the preceding molecule, the Ki is about 5.3-fold higher.

Ac-CPF[dD]CM[hArg][2Thi]WSTPIWC (linker 1-5-15 via TATA) [BCY7877] came in with a Ki of 9.5 nM. This Ki lies about 8.2-fold lower than the previous one.

As to Ac-CPF[dD]CM[hArg]NWS[124TriAz]PIWC (linker 1-5-15 via TATA) [BCY7883], the affinity corresponds to a Ki of 189 nM. This Ki is about 20-fold higher than that of the molecule before.

On to Ac-CPFK(Ac)CMKNWSWPIWC (linker 1-5-15 via TATA) [BCY7611], for which the Ki is 205 nM.

Turning to ACWPLDPYWCGRICA (linker 2-10-14 via TATA) [BCY430], the Ki was 310 nM.

Molecule Ac-CPF[dD]CM[hArg]NWST[Ser(ΨH,HPro)]IWC (linker 1-5-15 via TATA) [BCY7884] showed a Ki of 223 nM.

In turn, Ac-QKWCAPL[dA]DYWCNRIC (linker 4-12-16 via TATA) [BCY7639] showed an inhibition constant Ki of 490 nM.

For the molecule Ac-C[Ser(ΨH,HPro)]F[dD]CM[hArg]NWSTPIWC (linker 1-5-15 via TATA) [BCY7876], the Ki turned out to be 59.2 nM.

In turn, ACPFGCMKNWSWPIWCA (linker 2-6-16 via TATA, also called 80-09-02-N002) [BCY428] returned a Ki of 61 nM.

Ac-CP[2Pal]GCMKNWSWPIWC (linker 1-5-15 via TATA) [BCY7620] yielded a Ki of 246 nM.

Molecule Ac-CPFGCMKN[2Nal]SWPIWC (linker 1-5-15 via TATA) [BCY7664] gave a Ki of 70 nM.

As to CPF[dD]CM[hArg]NWSTPIWC (linker 1-5-15 via TATA) [BCY7793], the affinity, expressed as Ki, was 42 nM.

The molecule Ac-C[Aze]FGCMKNWSWPIWC (linker 1-5-15 via TATA) [BCY7608] showed a Ki of 42 nM.

Molecule Ac-CPF[dK]CM[hArg]NWSTPIWC (linker 1-5-15 via TATA) [BCY7820] gave a Ki of 10 nM. This Ki is about 4.2-fold lower than that of the molecule before.

Molecule Ac-CPF[dD]CM[hArg]NWS[Dopa]PIWC (linker 1-5-15 via TATA) [BCY7887] showed a Ki of 21.4 nM.

As for Ac-CP[Dopa][dD]CM[hArg]NWSTPIWC (linker 1-5-15 via TATA) [BCY7886], the Ki was determined as 15 nM.

Regarding Ac-CP[1Nal][dD]CM[hArg]DWSTPIWC (linker 1-5-15 via TATA) [BCY8127], affinity was put at a Ki of 2.4 nM.

Molecule Ac-CP[1Nal][dD]CL[hArg]DWSTPIWC (linker 1-5-15 via TATA) [BCY8211] displayed a Ki of 4.5 nM. Against the preceding molecule, the Ki is about 1.9-fold higher.

In turn, {Ac-βAla}-[Sar][Sar][Sar][Sar][Sar]CP[1Nal][dD]CM[hArg]DWSTPIWC (linker 6-10-20 via TATA) [BCY8123] gave a Ki of 4.5 nM. That is a single-digit nanomolar value.

In the case of Ac-CP[1Nal][dR]CM[hArg]DWSTPIWC (linker 1-5-15 via TATA) [BCY8215], the affinity corresponds to a Ki of 3 nM.

In turn, Ac-CPF[dD]CM[hArg][124TriAz]WSTPIWC (linker 1-5-15 via TATA) [BCY7881] registered a Ki of 14.4 nM.

The molecule Ac-[Phe(4-COOH)]CPFGCMKNWSWPIWC (linker 2-6-16 via TATA) [BCY7656] came in with a Ki of 71.9 nM.

Ac-QKWCAPLSDYWC[dA]RIC (linker 4-12-16 via TATA) [BCY7643] returned a Ki of 19 nM.

Ac-CPFGCMKNWSWPI[2Nal]C (linker 1-5-15 via TATA) [BCY7667]: the affinity corresponds to a Ki of 27.3 nM. The Ki values of the last two molecules are within 1.5-fold of each other.

For the origin of these results see patent US20210269480A1 (published 2021).
